# According to patent US20070293656A1, “COLLAGEN BINDING PEPTIDES” (Epix Pharmaceuticals, Inc., priority 2005, published 2007):
# Bridge positions count the residues as written; N and C are the ends. Square brackets hold non-standard residues; d marks the D form. Primed or numbered codes have the meaning given here. Side chains are listed from the residue outwards. Ends that are not written are not given here. * marks the point of attachment. Glu‑DTPA‑Gd = N-terminal Glu-DTPA-Gd chelate (gadolinium DTPA complex on glutamic acid); Tyr(3-I) = N[C@@H](Cc1ccc(O)c(I)c1)C(=O)O; Glu‑DTPA‑Gd‑PEG(2O) = not defined here; Gd^T = not defined here; Gd^T″ = GdDTPA-thiourea; Cbz = O=C(OCc1ccccc1)*; AEEA = NCCOCCOCC(=O)O
# B1: Comp ID 835 (peptide)
# peptide: {Gd^T}-DWTCS[dA]DEYTWHCNYE
# modifications: disulfide 4-13 (inferred); not fully specified (C-terminus); printed as Gd^T-DWTCSaDEYTWHCNYE; reading uncertain
# B2: Comp ID 836 (peptide)
# peptide: {Gd^T}-DWTCS[dS]DEYTWHCNYE
# modifications: disulfide 4-13 (inferred); not fully specified (C-terminus); printed as Gd^T-DWTCSsDEYTWHCNYE; reading uncertain
# B3: Comp ID 940 (peptide)
# peptide: Cbz-GQWHCTK(Gd^T″)RFPHHYCLYG
# modifications: disulfide 5-14 (inferred); not fully specified (C-terminus); printed as cbz-GQWHCT-K(Gd^T)-RFPHHYCLYG
# B4: Comp ID 966 (peptide)
# peptide: {Gd^T″}-GK([Gly-Gd^T″])WHCTTLFPHHVCLYG
# modifications: disulfide 5-14 (inferred); not fully specified (C-terminus); printed as Gd^T-G-K(G.Gd^T)-WHCTTLFPHHVCLYG
# Biological target: human collagen type I (acid soluble, extracted from placenta, Sigma C7774) (human) (UniProt P02452)
# Assay: dried collagen assay
# Sequence of human collagen type I (acid soluble, extracted from placenta, Sigma C7774) (human) (P02452 162-1218 limits assumed, chain 1 of 2): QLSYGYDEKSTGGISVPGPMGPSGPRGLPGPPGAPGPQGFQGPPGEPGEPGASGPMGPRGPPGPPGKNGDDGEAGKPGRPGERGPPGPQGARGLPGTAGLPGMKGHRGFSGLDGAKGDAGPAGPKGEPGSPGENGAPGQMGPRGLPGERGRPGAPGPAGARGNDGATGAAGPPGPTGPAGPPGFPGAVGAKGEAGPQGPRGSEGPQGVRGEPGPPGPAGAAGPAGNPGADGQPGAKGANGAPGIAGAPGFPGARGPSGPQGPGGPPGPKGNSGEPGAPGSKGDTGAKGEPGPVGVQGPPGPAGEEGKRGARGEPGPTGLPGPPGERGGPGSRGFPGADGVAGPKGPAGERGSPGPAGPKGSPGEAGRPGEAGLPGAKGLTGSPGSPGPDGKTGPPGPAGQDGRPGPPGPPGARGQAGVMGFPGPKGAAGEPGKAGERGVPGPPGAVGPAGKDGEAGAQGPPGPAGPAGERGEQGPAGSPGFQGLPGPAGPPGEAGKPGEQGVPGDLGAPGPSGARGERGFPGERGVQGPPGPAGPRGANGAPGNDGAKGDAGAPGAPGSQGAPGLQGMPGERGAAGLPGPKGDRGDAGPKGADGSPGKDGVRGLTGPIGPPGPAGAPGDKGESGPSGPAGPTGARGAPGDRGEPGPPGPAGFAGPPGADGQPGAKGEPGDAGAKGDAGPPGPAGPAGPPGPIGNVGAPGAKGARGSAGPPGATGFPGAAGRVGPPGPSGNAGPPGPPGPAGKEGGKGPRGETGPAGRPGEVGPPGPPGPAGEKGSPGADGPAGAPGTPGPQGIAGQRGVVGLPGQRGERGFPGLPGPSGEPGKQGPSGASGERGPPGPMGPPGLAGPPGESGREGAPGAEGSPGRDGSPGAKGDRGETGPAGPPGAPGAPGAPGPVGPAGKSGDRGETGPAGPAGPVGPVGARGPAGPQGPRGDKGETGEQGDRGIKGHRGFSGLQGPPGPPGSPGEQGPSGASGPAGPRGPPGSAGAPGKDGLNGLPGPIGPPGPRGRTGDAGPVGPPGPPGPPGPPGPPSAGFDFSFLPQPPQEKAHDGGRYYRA
# Sequence of human collagen type I (acid soluble, extracted from placenta, Sigma C7774) (human) (P08123 80-1119 limits assumed, chain 2 of 2, further chain): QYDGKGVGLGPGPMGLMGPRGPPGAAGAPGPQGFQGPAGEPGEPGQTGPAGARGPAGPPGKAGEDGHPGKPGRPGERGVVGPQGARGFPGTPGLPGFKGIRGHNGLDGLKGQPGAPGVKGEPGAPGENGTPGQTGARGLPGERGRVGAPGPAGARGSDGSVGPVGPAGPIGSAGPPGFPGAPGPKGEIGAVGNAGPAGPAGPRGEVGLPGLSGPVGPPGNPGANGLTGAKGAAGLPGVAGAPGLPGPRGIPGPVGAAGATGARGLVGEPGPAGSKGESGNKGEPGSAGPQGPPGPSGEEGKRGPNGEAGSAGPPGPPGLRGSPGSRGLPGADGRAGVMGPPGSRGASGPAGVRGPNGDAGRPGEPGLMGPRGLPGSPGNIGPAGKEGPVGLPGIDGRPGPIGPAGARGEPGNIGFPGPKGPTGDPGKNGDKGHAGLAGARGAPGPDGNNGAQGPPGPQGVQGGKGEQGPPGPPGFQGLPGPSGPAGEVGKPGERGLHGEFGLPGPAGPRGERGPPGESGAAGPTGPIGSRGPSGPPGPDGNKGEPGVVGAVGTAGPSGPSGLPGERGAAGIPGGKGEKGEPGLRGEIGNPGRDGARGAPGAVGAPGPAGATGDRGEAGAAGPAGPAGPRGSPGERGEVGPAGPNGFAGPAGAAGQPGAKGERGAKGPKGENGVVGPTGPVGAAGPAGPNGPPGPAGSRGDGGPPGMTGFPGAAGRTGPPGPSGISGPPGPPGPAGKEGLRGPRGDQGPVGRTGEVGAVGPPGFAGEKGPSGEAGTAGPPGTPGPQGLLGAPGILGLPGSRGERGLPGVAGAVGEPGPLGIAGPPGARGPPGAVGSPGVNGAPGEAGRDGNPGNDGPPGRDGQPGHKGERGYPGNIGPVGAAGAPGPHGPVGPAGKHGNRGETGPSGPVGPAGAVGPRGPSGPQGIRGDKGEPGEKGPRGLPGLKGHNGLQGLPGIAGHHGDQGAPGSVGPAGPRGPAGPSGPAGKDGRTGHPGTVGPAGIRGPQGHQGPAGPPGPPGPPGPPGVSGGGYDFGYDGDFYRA
row,Binder,% bound [%]
1,YHACYQAGCYIY (disulfide 4-9 (inferred)) [SEQ ID NO: 108],5
2,{Gd^T″}-GAWTCSGDEYTWHCNYE (disulfide 5-14 (inferred)) [Comp ID 830],26
3,{Gd^T″}-GQWTCSGDEYAWHCNY[dE] (disulfide 5-14 (inferred)) [Comp ID 832],12
4,{Gd^T″}-GQWTCSGDEYTWACNYE (disulfide 5-14 (inferred)) [Comp ID 833],13
5,{Gd^T″}-DWTCSGDEYYWHCNYE (disulfide 4-13 (inferred)) [Comp ID 834],22
6,B1,17
7,B2,13
8,GQWACSGDEYTWHCNYE (not fully specified; Gd^T-GQWACSGDEYTWHCNYE) [Comp ID 840],15
9,DWTCSGDEYTWYCNYE (not fully specified; Gd^T-DWTCSGDEYTWYCNYE) [Comp ID 842],23
10,{Gd^T}-DWTCS[dL]DEYTWHCNYE (disulfide 4-13 (inferred); not fully specified (C-terminus); reading uncertain) [Comp ID 847],16
11,GQWHCTTDFPHHYCLYG (not fully specified; Gd^T-GQWHCTTD-F(4-CN)-PHHYCLYG) [Comp ID 883],8
12,"GQWHCTTDFPHHYCLYG (not fully specified; Gd^T-GQWHCTTD-F(3,4-OMe)-PHHYCLYG) [Comp ID 893]",4
13,GQWHCTTRFPHHFCLYG (not fully specified; Gd^T-GQWHCTTRFPHHfCLYG) [Comp ID 901],2
14,GQWHCTTRFPHHXCLYG (not fully specified; Gd^T-GQWHCTTRFPHH-bip-CLYG) [Comp ID 903],3
15,GQWHCTTLFPHHYCLYG (not fully specified; Gd^T-GQWHCTTLFPHHyCLYG) [Comp ID 907],6
16,KWECVHTKGEWYCETK (disulfide 4-13 (inferred)) [SEQ ID NO: 65],7
17,RWSCVLDADGWVCSDN (disulfide 4-13 (inferred)) [SEQ ID NO: 66],6
18,GWSCHSMDMQWHCDFS (disulfide 4-13 (inferred)) [SEQ ID NO: 67],5
19,SWHCFLENHHWMCSDH (disulfide 4-13 (inferred)) [SEQ ID NO: 68],5
20,ERNCVLNDFRWTCGGD (disulfide 4-13 (inferred)) [SEQ ID NO: 75],10
21,GWQCQGTDSLDWKCLYM (disulfide 4-14 (inferred)) [SEQ ID NO: 77],12
22,TWACDLDEYGGWQCYTG (disulfide 4-14 (inferred)) [SEQ ID NO: 78],8
23,FWTCELDFRQSWYCYDK (disulfide 4-14 (inferred)) [SEQ ID NO: 79],8
24,SWYCNNGSYGQWHCEHR (disulfide 4-14 (inferred)) [SEQ ID NO: 80],6

# Biological target: rat collagen (acid soluble, type I, rat tail, Upstate 08-115) (rat) (UniProt P02454)
# Assay: dried collagen assay
# Sequence of rat collagen (acid soluble, type I, rat tail, Upstate 08-115) (rat) (P02454 152-1207 limits assumed, chain 1 of 2): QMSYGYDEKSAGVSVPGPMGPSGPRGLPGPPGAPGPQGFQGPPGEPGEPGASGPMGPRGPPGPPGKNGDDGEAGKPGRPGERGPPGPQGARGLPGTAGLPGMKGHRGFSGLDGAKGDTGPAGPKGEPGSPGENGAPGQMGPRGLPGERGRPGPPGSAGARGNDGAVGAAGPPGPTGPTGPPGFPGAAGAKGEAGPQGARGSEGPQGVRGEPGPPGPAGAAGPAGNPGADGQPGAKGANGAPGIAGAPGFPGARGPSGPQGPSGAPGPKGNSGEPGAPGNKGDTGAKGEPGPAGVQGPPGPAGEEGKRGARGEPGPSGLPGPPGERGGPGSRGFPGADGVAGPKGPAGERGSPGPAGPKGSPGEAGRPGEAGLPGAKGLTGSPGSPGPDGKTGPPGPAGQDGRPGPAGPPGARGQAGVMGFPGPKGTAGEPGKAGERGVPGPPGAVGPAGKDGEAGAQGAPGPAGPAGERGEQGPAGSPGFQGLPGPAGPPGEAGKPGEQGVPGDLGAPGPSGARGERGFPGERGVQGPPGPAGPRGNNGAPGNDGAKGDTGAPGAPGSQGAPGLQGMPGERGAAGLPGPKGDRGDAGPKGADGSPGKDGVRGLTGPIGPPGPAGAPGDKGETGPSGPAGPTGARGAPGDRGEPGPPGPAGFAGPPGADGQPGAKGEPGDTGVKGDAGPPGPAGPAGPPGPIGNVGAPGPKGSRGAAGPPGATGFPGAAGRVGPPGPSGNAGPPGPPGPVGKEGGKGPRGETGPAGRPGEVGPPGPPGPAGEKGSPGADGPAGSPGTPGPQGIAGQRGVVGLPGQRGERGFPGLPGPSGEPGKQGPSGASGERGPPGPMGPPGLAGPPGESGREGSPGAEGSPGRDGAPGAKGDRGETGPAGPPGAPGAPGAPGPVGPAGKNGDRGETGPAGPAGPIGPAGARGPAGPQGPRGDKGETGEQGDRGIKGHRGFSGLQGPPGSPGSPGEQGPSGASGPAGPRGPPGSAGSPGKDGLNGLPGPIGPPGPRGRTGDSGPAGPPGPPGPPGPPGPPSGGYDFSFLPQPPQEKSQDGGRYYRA
# Sequence of rat collagen (acid soluble, type I, rat tail, Upstate 08-115) (rat) (P02466 86-1125 limits assumed, chain 2 of 2, further chain): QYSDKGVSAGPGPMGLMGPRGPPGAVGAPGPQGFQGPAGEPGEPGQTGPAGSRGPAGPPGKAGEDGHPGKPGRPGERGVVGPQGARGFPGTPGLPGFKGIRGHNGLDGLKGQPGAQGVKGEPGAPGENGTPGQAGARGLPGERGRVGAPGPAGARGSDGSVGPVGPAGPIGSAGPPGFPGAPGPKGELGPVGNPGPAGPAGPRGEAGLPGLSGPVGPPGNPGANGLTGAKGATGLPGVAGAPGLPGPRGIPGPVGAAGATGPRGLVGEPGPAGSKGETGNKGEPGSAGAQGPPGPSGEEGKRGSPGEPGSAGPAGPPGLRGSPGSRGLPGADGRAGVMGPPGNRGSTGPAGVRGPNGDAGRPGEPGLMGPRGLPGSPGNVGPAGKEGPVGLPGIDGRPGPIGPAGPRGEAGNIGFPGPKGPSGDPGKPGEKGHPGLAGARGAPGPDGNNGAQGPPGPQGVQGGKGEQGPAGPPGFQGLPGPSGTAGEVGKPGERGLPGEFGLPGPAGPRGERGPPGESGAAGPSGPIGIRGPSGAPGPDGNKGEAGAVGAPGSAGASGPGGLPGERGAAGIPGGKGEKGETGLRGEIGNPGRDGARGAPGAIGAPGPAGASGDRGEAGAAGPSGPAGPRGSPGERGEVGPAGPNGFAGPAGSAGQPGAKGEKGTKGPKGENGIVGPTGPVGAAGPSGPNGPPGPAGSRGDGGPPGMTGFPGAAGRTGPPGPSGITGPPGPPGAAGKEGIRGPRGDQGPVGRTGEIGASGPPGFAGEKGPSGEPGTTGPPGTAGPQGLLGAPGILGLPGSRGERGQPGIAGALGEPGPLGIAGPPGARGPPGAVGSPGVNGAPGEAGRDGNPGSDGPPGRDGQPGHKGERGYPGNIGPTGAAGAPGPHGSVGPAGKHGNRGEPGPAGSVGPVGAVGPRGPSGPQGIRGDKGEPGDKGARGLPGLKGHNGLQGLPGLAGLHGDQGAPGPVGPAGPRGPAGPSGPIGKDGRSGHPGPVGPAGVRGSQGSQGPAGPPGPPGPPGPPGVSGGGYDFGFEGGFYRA
row,Binder,% bound [%]
1,YHACYQAGCYIW (disulfide 4-9 (inferred)) [SEQ ID NO: 107],6
2,YHACYQAGCYIY (disulfide 4-9 (inferred)) [SEQ ID NO: 108],12
3,{Glu‑DTPA‑Gd}-GGDWTCVGDHKTWKCNFH-NH2 (disulfide 6-15 (inferred)) [Compound ID 1023],12
4,{Glu‑DTPA‑Gd‑PEG(2O)}-GQWTCSGDEYTWHCNY[dE]-NH2 (disulfide 5-14 (inferred); reading uncertain) [Compound ID 1026],5
5,{Glu‑DTPA‑Gd}-WWGCRQGTGEHWSHCMWF-{AEEA-Glu‑DTPA‑Gd} (cysteine pairing not given here; also: Gd chelated by DTPA at each end) [SEQ ID NO: 195],9
6,{Gd^T″}-GAWTCSGDEYTWHCNYE (disulfide 5-14 (inferred)) [Comp ID 830],11
7,{Gd^T″}-GQWTCSGDEYAWHCNY[dE] (disulfide 5-14 (inferred)) [Comp ID 832],4
8,{Gd^T″}-GQWTCSGDEYTWACNYE (disulfide 5-14 (inferred)) [Comp ID 833],4
9,{Gd^T″}-DWTCSGDEYYWHCNYE (disulfide 4-13 (inferred)) [Comp ID 834],9
10,B1,9
11,B2,8
12,GQWTCSGDEYTWHCAYE (not fully specified; Gd^T-GQWTCSGDEYTWHCAYE) [Comp ID 839],11
13,GQWACSGDEYTWHCNYE (not fully specified; Gd^T-GQWACSGDEYTWHCNYE) [Comp ID 840],3
14,DWTCSGDEYTWYCNYE (not fully specified; Gd^T-DWTCSGDEYTWYCNYE) [Comp ID 842],9
15,DWTCSGDEYRWHCNYE (not fully specified; Gd^T-DWTCSGDEYRWHCNYE) [Comp ID 845],10
16,{Gd^T}-DWTCSGDE[Tyr(3-I)]TWHCNYE (disulfide 4-13 (inferred); not fully specified (C-terminus); reading uncertain) [Comp ID 846],9
17,{Gd^T}-DWTCS[dL]DEYTWHCNYE (disulfide 4-13 (inferred); not fully specified (C-terminus); reading uncertain) [Comp ID 847],7
18,DWTCSGDEYTWHCNYE (not fully specified; Gd^T-DWTCSGDEYTWHCNYE) [Comp ID 848],9
19,GQWHCTTDFPHHYCLYG (not fully specified; Gd^T-GQWHCTTD-F(4-CN)-PHHYCLYG) [Comp ID 883],2
20,"GQWHCTTDFPHHYCLYG (not fully specified; Gd^T-GQWHCTTD-F(3,4-OMe)-PHHYCLYG) [Comp ID 893]",2
21,GQWHCTTRFPHHFCLYG (not fully specified; Gd^T-GQWHCTTRFPHHfCLYG) [Comp ID 901],2
22,GQWHCTTRFPHHXCLYG (not fully specified; Gd^T-GQWHCTTRFPHH-bip-CLYG) [Comp ID 903],5
23,GQWHCTTRFPHHXCLYG (not fully specified; Gd^T-GQWHCTTRFPHH-1-nal-CLYG) [Comp ID 904],3
24,GQWHCTTLFPHHYCLYG (not fully specified; Gd^T-GQWHCTTLFPHHyCLYG) [Comp ID 907],1
25,B3,8
26,B4,8

# Biological target: T1, human collagen type I (acid soluble, extracted from placenta, Sigma C7774) (human, UniProt P02452 162-1218; P08123 80-1119)
# T1 construct: gelled and dried as a fibril film in the assay; also called dried human collagen; h-Collagen
# Assay: dried collagen assay
# Protocol: An additional 90 μL is reserved in a HPLC glass vial as a measure of the total concentration.
# T1 sequence (P02452 162-1218 limits assumed, chain 1 of 2): as the sequence (P02452 162-1218 limits assumed, chain 1 of 2) above
# T1 sequence (P08123 80-1119 limits assumed, chain 2 of 2): as the sequence (P08123 80-1119 limits assumed, chain 2 of 2, further chain) above
row,Binder,% bound [%]
1,YHACYQAGCYIW (disulfide 4-9 (inferred)) [SEQ ID NO: 107],9
